Laboratory results: patent publication US20200123264A1 (Regeneron, published 2020)
Values belong to the binder of their own block, whether it stands above or below them.

Experiments:
[1] = target: T1, recombinant human LEPR extracellular domain expressed with a C-terminal myc-myc-hexahistidine tag (human, UniProt P48357 22-839); assay: SPR, mAb captured, 25 C
T1 construct: Monomeric construct; also called hLEPR.MMH; hLEPR-MMH
Protocol: (§1) Equilibrium dissociation constants (KD values) for antigen binding to purified anti-LEPR monoclonal antibodies of the invention were determined using a real-time surface plasmon resonance biosensor using a Biacore 4000 instrument. All binding studies were performed in running buffer containing 10 mM HEPES, 150 mM NaCl, 3 mM EDTA, and 0.05% v/v Surfactant Tween-20, pH 7.4 (HBS-ET running buffer) at 25° C. and 37° C. The Biacore sensor surface was first derivatized by amine coupling with a monoclonal mouse anti-human Fc antibody (GE, # BR-1008-39) to the capture anti-LEPR monoclonal antibodies. The LEPR reagents tested for binding to the anti-LEPR monoclonal antibodies included recombinant human LEPR extracellular domain expressed with a C-terminal myc-myc-hexahistidine tag (hLEPR.MMH; SEQ ID NO:90), recombinant cynomolgus monkey LEPR extracellular domain expressed with a C-terminal myc-myc-hexahistidine tag (mfLEPR.MMH; SEQ ID NO:93), recombinant mouse LEPR extracellular domain expressed with a C-terminal myc-myc-hexahistidine tag (mLEPR.MMH; SEQ ID NO:94), recombinant rat LEPR extracellular domain expressed with a C-terminal myc-myc-hexahistidine tag (rLEPR.MMH; SEQ ID NO:95), and recombinant human LEPR extracellular domain expressed with a C-terminal mouse IgG2a Fc tag (hLEPR.mFc; SEQ ID NO:91). LEPR constructs that include MMH tags are monomeric LEPR constructs, and LEPR constructs including an mFc tag are dimeric LEPR constructs. […] The dissociation of monoclonal antibody bound LEPR reagent was monitored for 10 minutes in HBS-ET running buffer. Kinetic association (10 and dissociation (10 rate constants were determined by fitting the real-time binding sensorgrams to a 1:1 binding model with mass transport limitation using Scrubber 2.0c curve-fitting software. Binding dissociation equilibrium constants (KD) and dissociative half-lives (t½) were calculated from the kinetic rate constants as: […]

[2] = target: T2, recombinant cynomolgus monkey LEPR extracellular domain expressed with a C-terminal myc-myc-hexahistidine tag (cynomolgus monkey, UniProt Q9MYL0 22-837 (rhesus entry)); assay: SPR, mAb captured, 25 C
T2 construct: Monomeric construct; also called mfLEPR.MMH; mfLEPR-MMH
Protocol: as §1

[3] = target: T3, recombinant human LEPR extracellular domain expressed with a C-terminal mouse IgG2a Fc tag (human); assay: SPR, mAb captured, 25 C
T3 construct: Dimeric construct; also called hLEPR.mFc; hLEPR-mFc
T3 chain: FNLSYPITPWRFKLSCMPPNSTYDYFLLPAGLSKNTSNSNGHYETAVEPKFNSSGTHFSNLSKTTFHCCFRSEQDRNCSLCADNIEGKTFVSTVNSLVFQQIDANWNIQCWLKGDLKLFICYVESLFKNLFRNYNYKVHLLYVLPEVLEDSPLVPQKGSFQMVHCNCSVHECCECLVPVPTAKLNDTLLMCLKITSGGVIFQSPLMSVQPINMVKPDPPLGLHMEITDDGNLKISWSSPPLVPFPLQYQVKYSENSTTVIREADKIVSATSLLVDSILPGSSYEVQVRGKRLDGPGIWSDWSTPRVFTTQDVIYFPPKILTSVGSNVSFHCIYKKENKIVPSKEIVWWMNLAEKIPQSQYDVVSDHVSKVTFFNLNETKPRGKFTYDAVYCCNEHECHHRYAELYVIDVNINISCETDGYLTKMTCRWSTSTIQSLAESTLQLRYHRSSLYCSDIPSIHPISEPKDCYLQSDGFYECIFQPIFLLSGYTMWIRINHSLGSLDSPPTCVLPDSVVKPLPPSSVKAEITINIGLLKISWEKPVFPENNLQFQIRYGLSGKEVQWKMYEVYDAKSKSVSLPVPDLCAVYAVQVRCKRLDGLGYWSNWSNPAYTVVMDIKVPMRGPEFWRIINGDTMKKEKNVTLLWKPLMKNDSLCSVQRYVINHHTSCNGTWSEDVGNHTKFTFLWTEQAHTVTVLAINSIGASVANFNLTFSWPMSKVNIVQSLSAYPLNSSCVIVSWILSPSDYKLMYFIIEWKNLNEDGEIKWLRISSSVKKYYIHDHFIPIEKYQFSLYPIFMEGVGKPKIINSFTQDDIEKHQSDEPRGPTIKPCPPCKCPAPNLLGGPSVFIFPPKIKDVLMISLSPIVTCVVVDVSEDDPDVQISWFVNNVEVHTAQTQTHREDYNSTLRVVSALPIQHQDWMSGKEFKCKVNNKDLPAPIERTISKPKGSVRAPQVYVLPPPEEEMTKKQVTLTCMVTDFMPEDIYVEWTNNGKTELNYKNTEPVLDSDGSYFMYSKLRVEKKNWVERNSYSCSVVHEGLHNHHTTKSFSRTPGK
Protocol: as §1

[4] = target: T4, recombinant mouse LEPR extracellular domain expressed with a C-terminal myc-myc-hexahistidine tag (mouse, UniProt P48356 22-839); assay: SPR, mAb captured, 25 C
T4 construct: Monomeric construct; also called mLEPR.MMH; mLEPR-MMH
T4 sequence (P48356 other isoform, or with tags, fused parts or gaps): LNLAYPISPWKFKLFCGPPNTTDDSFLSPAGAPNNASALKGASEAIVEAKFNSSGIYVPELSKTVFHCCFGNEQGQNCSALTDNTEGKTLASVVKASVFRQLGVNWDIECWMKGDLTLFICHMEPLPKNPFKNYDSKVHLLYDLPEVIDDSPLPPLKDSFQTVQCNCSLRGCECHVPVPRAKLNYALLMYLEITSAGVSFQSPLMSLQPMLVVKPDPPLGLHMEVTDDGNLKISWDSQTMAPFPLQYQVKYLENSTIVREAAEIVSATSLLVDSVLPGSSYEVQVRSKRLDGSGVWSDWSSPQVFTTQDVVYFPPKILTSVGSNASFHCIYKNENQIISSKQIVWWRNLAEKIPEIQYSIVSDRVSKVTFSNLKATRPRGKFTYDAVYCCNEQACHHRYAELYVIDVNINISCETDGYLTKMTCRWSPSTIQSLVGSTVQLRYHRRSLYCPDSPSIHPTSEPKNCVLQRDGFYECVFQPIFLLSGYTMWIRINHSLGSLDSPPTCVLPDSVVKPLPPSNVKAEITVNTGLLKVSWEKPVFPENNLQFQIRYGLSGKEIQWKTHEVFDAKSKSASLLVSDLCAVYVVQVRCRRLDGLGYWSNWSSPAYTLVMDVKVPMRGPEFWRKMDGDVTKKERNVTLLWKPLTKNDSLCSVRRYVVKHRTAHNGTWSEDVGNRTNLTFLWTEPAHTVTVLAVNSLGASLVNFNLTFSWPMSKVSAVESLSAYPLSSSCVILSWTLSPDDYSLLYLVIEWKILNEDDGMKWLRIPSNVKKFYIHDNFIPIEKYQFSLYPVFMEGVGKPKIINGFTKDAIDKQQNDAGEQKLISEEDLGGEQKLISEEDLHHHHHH
Protocol: as §1

[5] = target: T5, recombinant rat LEPR extracellular domain expressed with a C-terminal myc-myc-hexahistidine tag (rat, UniProt Q62959 22-839); assay: SPR, mAb captured, 25 C
T5 construct: Monomeric construct; also called rLEPR.MMH; rLEPR-MMH
T5 sequence (Q62959 other isoform, or with tags, fused parts or gaps): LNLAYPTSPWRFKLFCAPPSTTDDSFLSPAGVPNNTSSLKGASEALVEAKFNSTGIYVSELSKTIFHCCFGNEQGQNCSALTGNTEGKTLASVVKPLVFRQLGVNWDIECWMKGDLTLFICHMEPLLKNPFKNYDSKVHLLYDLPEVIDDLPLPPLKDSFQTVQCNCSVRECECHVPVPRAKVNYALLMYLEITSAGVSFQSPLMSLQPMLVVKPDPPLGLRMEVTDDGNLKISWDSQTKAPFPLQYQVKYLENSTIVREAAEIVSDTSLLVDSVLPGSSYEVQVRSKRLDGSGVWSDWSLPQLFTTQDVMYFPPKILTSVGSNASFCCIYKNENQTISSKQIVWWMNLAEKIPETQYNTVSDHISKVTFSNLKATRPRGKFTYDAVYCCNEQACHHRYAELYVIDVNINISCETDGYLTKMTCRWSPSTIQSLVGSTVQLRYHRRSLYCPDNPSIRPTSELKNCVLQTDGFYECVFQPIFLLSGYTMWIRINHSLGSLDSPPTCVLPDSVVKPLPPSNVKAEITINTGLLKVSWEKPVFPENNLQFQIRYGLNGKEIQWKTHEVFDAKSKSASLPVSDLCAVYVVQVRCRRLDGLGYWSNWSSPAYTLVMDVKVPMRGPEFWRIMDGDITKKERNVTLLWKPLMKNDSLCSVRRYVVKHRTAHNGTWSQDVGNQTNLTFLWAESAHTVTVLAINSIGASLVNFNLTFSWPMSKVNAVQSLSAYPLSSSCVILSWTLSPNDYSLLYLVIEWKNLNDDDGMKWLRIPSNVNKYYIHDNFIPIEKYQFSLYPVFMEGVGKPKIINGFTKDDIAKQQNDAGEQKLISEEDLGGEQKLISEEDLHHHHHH
Protocol: as §1

[6] = target: T1, recombinant human LEPR extracellular …; assay: SPR, mAb captured, 37 C
Protocol: as §1

[7] = target: T4, recombinant mouse LEPR extracellular …; assay: SPR, mAb captured, 37 C
Protocol: as §1

100 nM hLEPR-MMH Bound (RU) [1]: 21 RU | Kd [1]: 106 nM | koff [1]: 0.00113 s⁻¹ | kon [1]: 10700 M⁻¹ s⁻¹ | t½ [1]: 10 min | 100 nM mfLEPR-MMH Bound (RU) [2]: 22 RU | Kd [2]: 96.3 nM | koff [2]: 0.00152 s⁻¹ | kon [2]: 15700 M⁻¹ s⁻¹ | t½ [2]: 8 min | 100 nM hLEPR-mFc Bound (RU) [3]: 53 RU | Kd [3]: 3.69 nM | koff [3]: 0.00018 s⁻¹ | kon [3]: 48700 M⁻¹ s⁻¹ | t½ [3]: 64 min | 100 nM mLEPR-MMH Bound (RU) [4]: -2 RU | 100 nM rLEPR-MMH Bound (RU) [5]: -1 RU | 100 nM hLEPR-MMH Bound (RU) [6]: 19 RU | Kd [6]: 202 nM | koff [6]: 0.00469 s⁻¹ | kon [6]: 23200 M⁻¹ s⁻¹ | t½ [6]: 2.5 min | 100 nM mLEPR-MMH Bound (RU) [7]: -1 RU
B1: H4H18439P2 (antibody, human IgG4, V domains shown)
VH: QLQLQESGPGLVKPSETLSLTCIVSGGDITSSSYYWNWIRQPPGKGLEWIGNIYYSGSTNYNPSLKSRVTISIDTSKSQFSLKLRSVTAADTAVYYCARLLRYFDWSKGYLDYWGQGTLVTVSS
VL: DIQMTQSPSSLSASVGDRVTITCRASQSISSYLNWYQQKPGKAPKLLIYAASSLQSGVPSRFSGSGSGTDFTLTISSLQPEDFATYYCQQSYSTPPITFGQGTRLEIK
notes: H4H prefix: human IgG4 Fc

100 nM hLEPR-MMH Bound (RU) [1]: 56 RU | Kd [1]: 65.3 nM | koff [1]: 0.00375 s⁻¹ | kon [1]: 57400 M⁻¹ s⁻¹ | t½ [1]: 3.1 min | 100 nM mfLEPR-MMH Bound (RU) [2]: 70 RU | Kd [2]: 58.9 nM | koff [2]: 0.00405 s⁻¹ | kon [2]: 68700 M⁻¹ s⁻¹ | t½ [2]: 2.9 min | 100 nM hLEPR-mFc Bound (RU) [3]: 70 RU | Kd [3]: 5.27 nM | koff [3]: 0.000536 s⁻¹ | kon [3]: 102000 M⁻¹ s⁻¹ | t½ [3]: 22 min | 100 nM mLEPR-MMH Bound (RU) [4]: 6 RU | Kd [4]: 264 nM | koff [4]: 0.00418 s⁻¹ | kon [4]: 15800 M⁻¹ s⁻¹ | t½ [4]: 2.8 min | 100 nM rLEPR-MMH Bound (RU) [5]: 13 RU | Kd [5]: 328 nM | koff [5]: 0.0138 s⁻¹ | kon [5]: 42100 M⁻¹ s⁻¹ | t½ [5]: 0.8 min | 100 nM hLEPR-MMH Bound (RU) [6]: 55 RU | Kd [6]: 77.6 nM | koff [6]: 0.00884 s⁻¹ | kon [6]: 114000 M⁻¹ s⁻¹ | t½ [6]: 1.3 min | 100 nM mLEPR-MMH Bound (RU) [7]: 6 RU | Kd [7]: 1160 nM | koff [7]: 0.0133 s⁻¹ | kon [7]: 11500 M⁻¹ s⁻¹ | t½ [7]: 0.9 min
B2: H4H18437P2 (antibody, human IgG4, V domains shown)
VH: QVQLVESGGGVVQPGRSLRLSCAASGFTFSSYGIHWVRQAPGKGLEWVAVISYDGNNKYYADSVKGRFTISRDNSKNTLYLQMNSLRAEDTAVYYCAKDLFLEWLFHGMGVWGQGTTVTVSS
VL: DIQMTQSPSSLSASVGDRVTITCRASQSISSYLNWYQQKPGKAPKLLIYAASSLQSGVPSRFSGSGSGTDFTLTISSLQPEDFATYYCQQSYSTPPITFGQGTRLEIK
notes: H4H prefix: human IgG4 Fc

100 nM hLEPR-MMH Bound (RU) [1]: 24 RU | Kd [1]: 194 nM | koff [1]: 0.00511 s⁻¹ | kon [1]: 26400 M⁻¹ s⁻¹ | t½ [1]: 2.3 min | 100 nM mfLEPR-MMH Bound (RU) [2]: 30 RU | Kd [2]: 148 nM | koff [2]: 0.00669 s⁻¹ | kon [2]: 45000 M⁻¹ s⁻¹ | t½ [2]: 1.7 min | 100 nM hLEPR-mFc Bound (RU) [3]: 37 RU | Kd [3]: 11.9 nM | koff [3]: 0.000472 s⁻¹ | kon [3]: 39700 M⁻¹ s⁻¹ | t½ [3]: 24 min | 100 nM mLEPR-MMH Bound (RU) [4]: 1 RU | binding result [4]: no binding (tested: 100 nM) | 100 nM rLEPR-MMH Bound (RU) [5]: 5 RU | Kd [5]: 943 nM | koff [5]: 0.0198 s⁻¹ | kon [5]: 21000 M⁻¹ s⁻¹ | t½ [5]: 0.6 min | 100 nM hLEPR-MMH Bound (RU) [6]: 26 RU | Kd [6]: 148 nM | koff [6]: 0.00674 s⁻¹ | kon [6]: 45500 M⁻¹ s⁻¹ | t½ [6]: 1.7 min | 100 nM mLEPR-MMH Bound (RU) [7]: 3 RU
B3: H4H18466P2 (antibody, human IgG4, V domains shown)
VH: EVQLVESGGGLVQPGGSLRLSCTASGFTFSSYGLHWVRQAPGKGLEYVSSINHNGGSKYYADSVKGRFTISRDNSKNTLFLQMGSLKTEDMAVYYCARDLFLEWLFHGFDIWGQGTMVTVSS
VL: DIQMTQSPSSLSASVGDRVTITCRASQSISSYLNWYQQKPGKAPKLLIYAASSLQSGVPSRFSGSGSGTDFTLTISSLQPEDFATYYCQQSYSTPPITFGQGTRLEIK
notes: H4H prefix: human IgG4 Fc

100 nM hLEPR-MMH Bound (RU) [1]: 119 RU | Kd [1]: 9.89 nM | koff [1]: 0.00252 s⁻¹ | kon [1]: 255000 M⁻¹ s⁻¹ | t½ [1]: 5 min | 100 nM mfLEPR-MMH Bound (RU) [2]: 133 RU | Kd [2]: 12.2 nM | koff [2]: 0.00331 s⁻¹ | kon [2]: 273000 M⁻¹ s⁻¹ | t½ [2]: 3.5 min | 100 nM hLEPR-mFc Bound (RU) [3]: 149 RU | Kd [3]: 0.863 nM | koff [3]: 0.000423 s⁻¹ | kon [3]: 491000 M⁻¹ s⁻¹ | t½ [3]: 27 min | 100 nM mLEPR-MMH Bound (RU) [4]: 1 RU | 100 nM rLEPR-MMH Bound (RU) [5]: 18 RU | Kd [5]: 730 nM | koff [5]: 0.0206 s⁻¹ | kon [5]: 28300 M⁻¹ s⁻¹ | t½ [5]: 0.6 min | 100 nM hLEPR-MMH Bound (RU) [6]: 108 RU | Kd [6]: 24.8 nM | koff [6]: 0.00855 s⁻¹ | kon [6]: 345000 M⁻¹ s⁻¹ | t½ [6]: 1.4 min | 100 nM mLEPR-MMH Bound (RU) [7]: -1 RU
B4: H4H18457P2 (antibody, human IgG4, V domains shown)
VH: EVQLVESGGSVVRPGESLRLSCAASGFTFDDYGMSWVRQAPGKGLEWVSGISWNGGITVYADSVKGRFTVSRDNAKNSLYLQMNSLRAEDTALYHCARARYGGADYWGQGTLVTVSS
VL: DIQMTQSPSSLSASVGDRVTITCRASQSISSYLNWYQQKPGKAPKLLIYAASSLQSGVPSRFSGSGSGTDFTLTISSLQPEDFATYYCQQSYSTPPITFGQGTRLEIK
notes: H4H prefix: human IgG4 Fc
